This is an account of results in patent publication US20110028686A1 (published 2011).

The target in assay [1] is T1, CBP KIX, wild type (Example 20) (UniProt P45481 586-665, limits assumed).
T1 construct: domain: KIX; also called wild type CBP KIX; CBP MX
As to the kind of experiment: FP, fluorescein-labelled PPKID4^P variant titrated with CBP KIX.

The target in assay [2] is T1, CBP KIX, wild type (Example 20). As to the kind of experiment: FP with CBP KIX.
Assay [3] concerns the target T2, Human recombinant Bcl-2 (1-205), soluble GST-fusion (Santa Cruz Biotechnology) (human, UniProt P10415 1-205).
T2 construct: Bought; also called GST-Bcl-2; not shown: glutathione S-transferase (GST) fusion partner
The experiment in a line: fluorescence emission titration, fluorescein-labelled peptide + serially diluted Bcl-2, 4 C, PBS.

The target of assay [4] is T3, HisKIX (UniProt P45481 586-672).
T3 construct: range 586-672; the residue numbers fit mouse CBP; also called His-tagged CBP KIX domain; CBP KIX; not shown: amino-terminal hexahistidine tag and linker of pET15b
T3 sequence (P45481 586-672): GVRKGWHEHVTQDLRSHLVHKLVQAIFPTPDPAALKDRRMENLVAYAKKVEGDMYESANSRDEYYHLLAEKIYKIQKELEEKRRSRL
As to the kind of experiment: FP, fluorescein-labelled peptide titrated with HisKIX, 25 C.

Assay [5] deals with carbonic anhydrase II (Sigma). As to the kind of experiment: FP, 50 nM fluorescein-labelled peptide titrated with carbonic anhydrase II, 25 C.
carbonic anhydrase II (Sigma), sequence (P00921 2-260): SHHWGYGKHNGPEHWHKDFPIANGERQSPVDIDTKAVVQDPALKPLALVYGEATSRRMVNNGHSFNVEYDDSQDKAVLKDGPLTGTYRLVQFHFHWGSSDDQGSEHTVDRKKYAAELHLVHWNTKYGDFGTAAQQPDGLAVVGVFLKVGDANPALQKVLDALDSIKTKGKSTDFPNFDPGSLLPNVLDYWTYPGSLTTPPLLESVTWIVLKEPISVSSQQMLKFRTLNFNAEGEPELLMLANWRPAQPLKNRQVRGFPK
Assay [6] concerns the target T3, HisKIX. The experiment in a line: FP with HisKIX.
In assay [7] the target is T3, HisKIX. As to the kind of experiment: FP, fluorescein-labelled peptide titrated with HisKIX, 25 C. The source holds these as a separate data set.
Assay [8] addresses T3, HisKIX. The experiment in a line: FP with HisKIX; end of the range assigned by Table 1.

Where two headings read alike, the source gives them in different places. Square brackets hold non-standard residues; d marks the D form. Primed or numbered codes have the meaning given here. Ends that are not written are not given here. * marks the point of attachment. acetamidofluorescein″ = acetamidofluorescein (5-iodoacetamidofluorescein attached to the C-terminal Cys); Fluorescein(5-NHCOCH2) = O=C(C*)Nc1ccc2c(c1)C(=O)OC21c2ccc(O)cc2Oc2cc(O)ccc21; pS = N[C@@H](COP(=O)(O)O)C(=O)O

T2 sequence (P10415 1-205): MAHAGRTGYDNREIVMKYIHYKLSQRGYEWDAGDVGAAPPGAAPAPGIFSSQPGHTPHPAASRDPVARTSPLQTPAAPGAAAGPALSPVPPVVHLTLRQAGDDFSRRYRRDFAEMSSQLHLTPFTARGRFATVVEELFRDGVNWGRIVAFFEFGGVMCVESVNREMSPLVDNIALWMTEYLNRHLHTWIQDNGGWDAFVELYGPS
T1 sequence (P45481 586-665 limits assumed): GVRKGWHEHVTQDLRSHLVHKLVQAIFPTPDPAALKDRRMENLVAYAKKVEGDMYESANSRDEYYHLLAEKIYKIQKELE

A word on the Kd: it is the free concentration of one partner at which half of the binding sites on the other are occupied at equilibrium, for simple one-to-one binding. Consider GPSQPTYPGDDAPVRRL[pS]FAYILLDLYLDAPGVC(acetamidofluorescein″)-NH2 (designed binder) [PPKID4^P F20A], for which the affinity in assay [1], expressed as Kd, was 2550 nM. Further, the “ΔΔG relative to wild type PPKID4^P” value in assay [2] turned out to be 0.85 kcal/mol.
In assay [1], GPSQPTYPGDDAPVRRL[pS]FFYILADLYLDAPGVC(acetamidofluorescein″)-NH2 (designed binder) [PPKID4^P L24A] gave a Kd of 1160 nM. The “ΔΔG relative to wild type PPKID4^P” value in assay [2] was 0.38 kcal/mol.
On the same counts, the results for GPSQPTYPGDDAPVRRA[pS]FFYILLDLYLDAPGVC(acetamidofluorescein″)-NH2 (designed binder) [PPKID4^P L17A] are 680 nM and 0.07 kcal/mol.
As to GPSQPTYPGDDAPVRRL[pS]FFYILLDLALDAPGVC(acetamidofluorescein″)-NH2 (designed binder) [PPKID4^P Y27A], binding in assay [1] was characterised by a dissociation constant (Kd) of 3090 nM. In assay [2], the “ΔΔG relative to wild type PPKID4^P” value was 0.96 kcal/mol.
In assay [1], GPSQPTYAGDDAPVRRL[pS]FFYILLDLYLDAPGVC(acetamidofluorescein″)-NH2 (designed binder) [PPKID4^P P8A] came in with an equilibrium dissociation constant (Kd) of 1070 nM. Also, the “ΔΔG relative to wild type PPKID4^P” value in assay [2] was 0.33 kcal/mol.
With GPSQPTYPGDDAPVRRL[pS]FFYILLDLYADAPGVC(acetamidofluorescein″)-NH2 (designed binder) [PPKID4^P L28A], in assay [1], the Kd turned out to be 830 nM. Besides, the “ΔΔG relative to wild type PPKID4^P” value in assay [2] turned out to be 0.18 kcal/mol.
GASQPTYPGDDAPVRRL[pS]FFYILLDLYLDAPGVC(acetamidofluorescein″)-NH2 (designed binder) [PPKID4^P P2A] came in with a Kd in assay [1] of 870 nM. Further, the “ΔΔG relative to wild type PPKID4^P” value in assay [2] came to 0.21 kcal/mol.
Regarding GPSQATYPGDDAPVRRL[pS]FFYILLDLYLDAPGVC(acetamidofluorescein″)-NH2 (designed binder) [PPKID4^P P5A], binding in assay [1] was put at a Kd of 1020 nM. In assay [2], the “ΔΔG relative to wild type PPKID4^P” value worked out at 0.3 kcal/mol.

B1: p4102 (designed binder)
peptide: GPSQPTYPGDDAPVEDLIRFVSRLRYIADLINRYC(5‑iodoacetamidofluorescein)-NH2
notes: Mutant with a single amino acid deletion in the alpha-helix; Amino terminal portion from aPP (e.g., residues 1-19); also called p4124 (labelled form, by order and mass)
Turning to B1, in assay [3], the Kd was determined as 3700 nM.

B2: peptide C^U (peptide)
peptide: RRLSFFYILLDLYLDAPGVC(acetamidofluorescein)-NH2
notes: also called Peptide C (unphosphorylated)
Consider B2, for which the results for the Kd in assay [4], in assay [5] and in assay [7] were 21500 nM, 66000 nM and 21500 nM, respectively. Also, the “ΔΔG relative to KID-B^U” value in assay [6] was more than -1.5 kcal/mol.

B3: p4100 (designed binder)
peptide: GPSQPTYPGDDAPVEDLIRFVGRLLRYFGDEINRYC(5‑iodoacetamidofluorescein)-NH2
notes: As for p4099: amino terminal portion from aPP (e.g., residues 1-19); also called p4122 (labelled form, by order and mass)
In the case of B3, the Kd in assay [3] is 401 nM.

B4: p4101 (designed binder)
peptide: GPSQPTYPGDDAPVEDLIRFVGRLLAYFGDDINRYC(5‑iodoacetamidofluorescein)-NH2
notes: As for p4099: amino terminal portion from aPP (e.g., residues 1-19); also called p4123 (labelled form, by order and mass)
On to B4, for which the Kd in assay [3] was determined as 811 nM.
Regarding GASPHTSSGDDAPVRRLSFFDILLDLYLDAPGVC(acetamidofluorescein)-NH2 (designed binder, not fully specified, also called PPKID3 (unphosphorylated)) [PPKID3^U], in assay [4], the Kd amounted to 6700 nM. In addition, in assay [8], the “fold change in affinity against peptide C^U” value was 1 to 3 fold and the “ΔΔG relative to peptide C^U” value is -0.7 kcal/mol.

B5: PPKID6 S18E (designed binder)
peptide: GISWPTFEGDDAPVRRLEFFYILLDLYLDAPGVC(Fluorescein(5-NHCOCH2))-NH2
modifications: N-terminus assumed
SMILES: CC[C@H](C)[C@H](NC(=O)CN)C(=O)N[C@@H](CO)C(=O)N[C@@H](Cc1c[nH]c2ccccc12)C(=O)N1CCC[C@H]1C(=O)N[C@H](C(=O)N[C@@H](Cc1ccccc1)C(=O)N[C@@H](CCC(=O)O)C(=O)NCC(=O)N[C@@H](CC(=O)O)C(=O)N[C@@H](CC(=O)O)C(=O)N[C@@H](C)C(=O)N1CCC[C@H]1C(=O)N[C@H](C(=O)N[C@@H](CCCNC(=N)N)C(=O)N[C@@H](CCCNC(=N)N)C(=O)N[C@@H](CC(C)C)C(=O)N[C@@H](CCC(=O)O)C(=O)N[C@@H](Cc1ccccc1)C(=O)N[C@@H](Cc1ccccc1)C(=O)N[C@@H](Cc1ccc(O)cc1)C(=O)N[C@H](C(=O)N[C@@H](CC(C)C)C(=O)N[C@@H](CC(C)C)C(=O)N[C@@H](CC(=O)O)C(=O)N[C@@H](CC(C)C)C(=O)N[C@@H](Cc1ccc(O)cc1)C(=O)N[C@@H](CC(C)C)C(=O)N[C@@H](CC(=O)O)C(=O)N[C@@H](C)C(=O)N1CCC[C@H]1C(=O)NCC(=O)N[C@H](C(=O)N[C@@H](CSCC(=O)Nc1ccc2c(c1)C(=O)OC21c2ccc(O)cc2Oc2cc(O)ccc21)C(N)=O)C(C)C)[C@@H](C)CC)C(C)C)[C@@H](C)O
Molecule B5 yielded a Kd in assay [4] of 10900 nM. Also, in assay [6], the “fold decrease in affinity against PPKID6^U” value is 7 fold and the “ΔΔG relative to PPKID6^U” value amounted to 1.2 kcal/mol.

B6: PPKID6^P (designed binder)
peptide: GISWPTFEGDDAPVRRL[pS]FFYILLDLYLDAPGVC(Fluorescein(5-NHCOCH2))-NH2
modifications: N-terminus assumed
SMILES: CC[C@H](C)[C@H](NC(=O)CN)C(=O)N[C@@H](CO)C(=O)N[C@@H](Cc1c[nH]c2ccccc12)C(=O)N1CCC[C@H]1C(=O)N[C@H](C(=O)N[C@@H](Cc1ccccc1)C(=O)N[C@@H](CCC(=O)O)C(=O)NCC(=O)N[C@@H](CC(=O)O)C(=O)N[C@@H](CC(=O)O)C(=O)N[C@@H](C)C(=O)N1CCC[C@H]1C(=O)N[C@H](C(=O)N[C@@H](CCCNC(=N)N)C(=O)N[C@@H](CCCNC(=N)N)C(=O)N[C@@H](CC(C)C)C(=O)N[C@@H](COP(=O)(O)O)C(=O)N[C@@H](Cc1ccccc1)C(=O)N[C@@H](Cc1ccccc1)C(=O)N[C@@H](Cc1ccc(O)cc1)C(=O)N[C@H](C(=O)N[C@@H](CC(C)C)C(=O)N[C@@H](CC(C)C)C(=O)N[C@@H](CC(=O)O)C(=O)N[C@@H](CC(C)C)C(=O)N[C@@H](Cc1ccc(O)cc1)C(=O)N[C@@H](CC(C)C)C(=O)N[C@@H](CC(=O)O)C(=O)N[C@@H](C)C(=O)N1CCC[C@H]1C(=O)NCC(=O)N[C@H](C(=O)N[C@@H](CSCC(=O)Nc1ccc2c(c1)C(=O)OC21c2ccc(O)cc2Oc2cc(O)ccc21)C(N)=O)C(C)C)[C@@H](C)CC)C(C)C)[C@@H](C)O
notes: also called PPKID6 (phosphorylated)
In assay [4], B6 registered a dissociation constant Kd of 624 nM. Moreover, in assay [6], the “fold enhancement in affinity over unphosphorylated PPKID6” value was 2 fold and the “ΔΔG relative to unphosphorylated PPKID6” value is -0.5 kcal/mol.
